As a reminder, the Kd is the free concentration of one partner at which half of the binding sites on the other are occupied at equilibrium, for simple one-to-one binding. Low values mean higher affinity, high ones lower affinity.

The target of the data set is AβO (amyloid-beta oligomer) (UniProt P05067). In words: fluorescence quenching titration (Cy5/BHQ3), LangmuirEXT1 fit. The settings on record: 25 °C; buffer not stated for the aptamer-only binding assays (AβO detection assay: 50 mM Tris-HCl pH 8, 10 mM MgCl2).
UniProt P05067, sequence (P05067 whole entry): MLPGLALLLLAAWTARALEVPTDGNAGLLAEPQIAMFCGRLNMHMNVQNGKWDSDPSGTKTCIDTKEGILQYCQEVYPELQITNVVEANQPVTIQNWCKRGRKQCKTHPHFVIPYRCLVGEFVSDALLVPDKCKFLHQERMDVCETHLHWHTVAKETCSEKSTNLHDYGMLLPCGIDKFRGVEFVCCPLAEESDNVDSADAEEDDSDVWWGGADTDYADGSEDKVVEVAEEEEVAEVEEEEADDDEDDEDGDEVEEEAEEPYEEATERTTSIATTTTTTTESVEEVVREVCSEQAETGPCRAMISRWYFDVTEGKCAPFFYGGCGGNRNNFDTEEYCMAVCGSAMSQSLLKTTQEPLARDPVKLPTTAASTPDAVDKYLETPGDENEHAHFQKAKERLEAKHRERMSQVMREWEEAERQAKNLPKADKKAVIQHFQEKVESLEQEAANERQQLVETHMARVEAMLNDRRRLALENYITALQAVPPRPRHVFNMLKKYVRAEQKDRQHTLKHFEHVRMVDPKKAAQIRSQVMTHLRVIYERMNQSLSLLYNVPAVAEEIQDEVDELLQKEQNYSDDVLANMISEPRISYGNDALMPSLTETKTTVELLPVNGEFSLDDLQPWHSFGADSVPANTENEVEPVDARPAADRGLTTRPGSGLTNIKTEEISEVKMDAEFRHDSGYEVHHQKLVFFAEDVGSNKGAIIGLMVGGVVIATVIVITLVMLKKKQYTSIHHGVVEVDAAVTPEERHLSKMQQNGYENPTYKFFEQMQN

In turn, “TGACCAACGCCTGTGGTGTTGGGGCGGGTGCGGTTGGTCA [A4]” displayed a Kd of 7.54 nM.

The values above are taken from PMC12307502.
